{"source": "patent US20240294593A1", "about": "(Genentech, published 2024)", "binders": {"B1": {"name": "H1.149_L1 (antibody, V domains shown)", "VH": "EVQLVESGGGLVQPGGSLRLSCAASGFTFSSFGMHWVRQAPGKGLEWVSYISSGSSIIYYADSVKGRFTISRDNAKNSLYLQMNSLRAEDTAVYYCARGGRLDWSPDYWGQGTLVTVSS", "VL": "DIVMTQSPDSLAVSLGERATINCKSSQSLLNSGNQKNYLTWYQQKPGQPPKLLIYWASTRESGVPDRFTGSGSGTDFTLTISSLQAEDVAVYYCQNDYSYPFTFGSGTKLEIKR", "notes": "also called VH-V111D; Kabat 99"}, "B2": {"name": "H1.156_L1 (antibody, V domains shown)", "VH": "EVQLVESGGGLVQPGGSLRLSCAASGFTFSSFGMHWVRQAPGKGLEWVSYISSGSSIIYYADSVKGRFTISRDNAKNSLYLQMNSLRAEDTAVYYCARGGRLVQSPDYWGQGTLVTVSS", "VL": "DIVMTQSPDSLAVSLGERATINCKSSQSLLNSGNQKNYLTWYQQKPGQPPKLLIYWASTRESGVPDRFTGSGSGTDFTLTISSLQAEDVAVYYCQNDYSYPFTFGSGTKLEIKR", "notes": "also called VH-W112Q; Kabat 100; copies: 2 + 2"}, "B3": {"name": "H1_L1.9 (antibody, V domains shown)", "VH": "EVQLVESGGGLVQPGGSLRLSCAASGFTFSSFGMHWVRQAPGKGLEWVSYISSGSSIIYYADSVKGRFTISRDNAKNSLYLQMNSLRAEDTAVYYCARGGRLVWSPDYWGQGTLVTVSS", "VL": "DIVMTQSPDSLAVSLGERATINCKSSQSLLNTGNQKNYLTWYQQKPGQPPKLLIYWASTRESGVPDRFTGSGSGTDFTLTISSLQAEDVAVYYCQNDYSYPFTFGSGTKLEIKR", "notes": "also called VL-S32T; Kabat 27e"}, "B4": {"name": "H1_L1.2 (antibody, V domains shown)", "VH": "EVQLVESGGGLVQPGGSLRLSCAASGFTFSSFGMHWVRQAPGKGLEWVSYISSGSSIIYYADSVKGRFTISRDNAKNSLYLQMNSLRAEDTAVYYCARGGRLVWSPDYWGQGTLVTVSS", "VL": "DIVMTQSPDSLAVSLGERATINCKSSQSLLESGNQKNYLTWYQQKPGQPPKLLIYWASTRESGVPDRFTGSGSGTDFTLTISSLQAEDVAVYYCQNDYSYPFTFGSGTKLEIKR", "notes": "also called VL-N31E; Kabat 27d"}, "B5": {"name": "H1.155_L1 (antibody, V domains shown)", "VH": "EVQLVESGGGLVQPGGSLRLSCAASGFTFSSFGMHWVRQAPGKGLEWVSYISSGSSIIYYADSVKGRFTISRDNAKNSLYLQMNSLRAEDTAVYYCARGGRLVHSPDYWGQGTLVTVSS", "VL": "DIVMTQSPDSLAVSLGERATINCKSSQSLLNSGNQKNYLTWYQQKPGQPPKLLIYWASTRESGVPDRFTGSGSGTDFTLTISSLQAEDVAVYYCQNDYSYPFTFGSGTKLEIKR", "notes": "also called VH-W112H; Kabat 100; copies: 2 + 2"}, "B6": {"name": "H1_L1.10 (antibody, V domains shown)", "VH": "EVQLVESGGGLVQPGGSLRLSCAASGFTFSSFGMHWVRQAPGKGLEWVSYISSGSSIIYYADSVKGRFTISRDNAKNSLYLQMNSLRAEDTAVYYCARGGRLVWSPDYWGQGTLVTVSS", "VL": "DIVMTQSPDSLAVSLGERATINCKSSQSLLNAGNQKNYLTWYQQKPGQPPKLLIYWASTRESGVPDRFTGSGSGTDFTLTISSLQAEDVAVYYCQNDYSYPFTFGSGTKLEIKR", "notes": "also called VL-S32A; Kabat 27e"}, "B7": {"name": "H1_L1.5 (antibody, V domains shown)", "VH": "EVQLVESGGGLVQPGGSLRLSCAASGFTFSSFGMHWVRQAPGKGLEWVSYISSGSSIIYYADSVKGRFTISRDNAKNSLYLQMNSLRAEDTAVYYCARGGRLVWSPDYWGQGTLVTVSS", "VL": "DIVMTQSPDSLAVSLGERATINCKSSQSLLLSGNQKNYLTWYQQKPGQPPKLLIYWASTRESGVPDRFTGSGSGTDFTLTISSLQAEDVAVYYCQNDYSYPFTFGSGTKLEIKR", "notes": "also called VL-N31L; Kabat 27d"}, "B8": {"name": "H1.161_L1 (antibody, V domains shown)", "VH": "EVQLVESGGGLVQPGGSLRLSCAASGFTFSSFGMHWVRQAPGKGLEWVSYISSGSSIIYYADSVKGRFTISRDNAKNSLYLQMNSLRAEDTAVYYCARGGRLVWAPDYWGQGTLVTVSS", "VL": "DIVMTQSPDSLAVSLGERATINCKSSQSLLNSGNQKNYLTWYQQKPGQPPKLLIYWASTRESGVPDRFTGSGSGTDFTLTISSLQAEDVAVYYCQNDYSYPFTFGSGTKLEIKR", "notes": "also called VH-S113A; Kabat 100a"}, "B9": {"name": "H1.166_L1 (antibody, V domains shown)", "VH": "EVQLVESGGGLVQPGGSLRLSCAASGFTFSSFGMHWVRQAPGKGLEWVSYISSGSSIIYYADSVKGRFTISRDNAKNSLYLQMNSLRAEDTAVYYCARGGRLVWDPDYWGQGTLVTVSS", "VL": "DIVMTQSPDSLAVSLGERATINCKSSQSLLNSGNQKNYLTWYQQKPGQPPKLLIYWASTRESGVPDRFTGSGSGTDFTLTISSLQAEDVAVYYCQNDYSYPFTFGSGTKLEIKR", "notes": "also called VH-S113D; Kabat 100a"}, "B10": {"name": "H1_L1.11 (antibody, V domains shown)", "VH": "EVQLVESGGGLVQPGGSLRLSCAASGFTFSSFGMHWVRQAPGKGLEWVSYISSGSSIIYYADSVKGRFTISRDNAKNSLYLQMNSLRAEDTAVYYCARGGRLVWSPDYWGQGTLVTVSS", "VL": "DIVMTQSPDSLAVSLGERATINCKSSQSLLNQGNQKNYLTWYQQKPGQPPKLLIYWASTRESGVPDRFTGSGSGTDFTLTISSLQAEDVAVYYCQNDYSYPFTFGSGTKLEIKR", "notes": "also called VL-S32Q; Kabat 27e"}, "B11": {"name": "H1.157_L1 (antibody, V domains shown)", "VH": "EVQLVESGGGLVQPGGSLRLSCAASGFTFSSFGMHWVRQAPGKGLEWVSYISSGSSIIYYADSVKGRFTISRDNAKNSLYLQMNSLRAEDTAVYYCARGGRLVSSPDYWGQGTLVTVSS", "VL": "DIVMTQSPDSLAVSLGERATINCKSSQSLLNSGNQKNYLTWYQQKPGQPPKLLIYWASTRESGVPDRFTGSGSGTDFTLTISSLQAEDVAVYYCQNDYSYPFTFGSGTKLEIKR", "notes": "also called VH-W112S; Kabat 100; copies: 2 + 2"}, "B12": {"name": "H1.160_L1 (antibody, V domains shown)", "VH": "EVQLVESGGGLVQPGGSLRLSCAASGFTFSSFGMHWVRQAPGKGLEWVSYISSGSSIIYYADSVKGRFTISRDNAKNSLYLQMNSLRAEDTAVYYCARGGRLVWTPDYWGQGTLVTVSS", "VL": "DIVMTQSPDSLAVSLGERATINCKSSQSLLNSGNQKNYLTWYQQKPGQPPKLLIYWASTRESGVPDRFTGSGSGTDFTLTISSLQAEDVAVYYCQNDYSYPFTFGSGTKLEIKR", "notes": "also called VH-S113T; Kabat 100a"}, "B13": {"name": "H1_L1.7 (antibody, V domains shown)", "VH": "EVQLVESGGGLVQPGGSLRLSCAASGFTFSSFGMHWVRQAPGKGLEWVSYISSGSSIIYYADSVKGRFTISRDNAKNSLYLQMNSLRAEDTAVYYCARGGRLVWSPDYWGQGTLVTVSS", "VL": "DIVMTQSPDSLAVSLGERATINCKSSQSLLGSGNQKNYLTWYQQKPGQPPKLLIYWASTRESGVPDRFTGSGSGTDFTLTISSLQAEDVAVYYCQNDYSYPFTFGSGTKLEIKR", "notes": "also called VL-N31G; Kabat 27d"}, "B14": {"name": "H1.153_L1 (antibody, V domains shown)", "VH": "EVQLVESGGGLVQPGGSLRLSCAASGFTFSSFGMHWVRQAPGKGLEWVSYISSGSSIIYYADSVKGRFTISRDNAKNSLYLQMNSLRAEDTAVYYCARGGRLVYSPDYWGQGTLVTVSS", "VL": "DIVMTQSPDSLAVSLGERATINCKSSQSLLNSGNQKNYLTWYQQKPGQPPKLLIYWASTRESGVPDRFTGSGSGTDFTLTISSLQAEDVAVYYCQNDYSYPFTFGSGTKLEIKR", "notes": "also called VH-W112Y; Kabat 100; copies: 2 + 2"}, "B15": {"name": "H1.158_L1 (antibody, V domains shown)", "VH": "EVQLVESGGGLVQPGGSLRLSCAASGFTFSSFGMHWVRQAPGKGLEWVSYISSGSSIIYYADSVKGRFTISRDNAKNSLYLQMNSLRAEDTAVYYCARGGRLVESPDYWGQGTLVTVSS", "VL": "DIVMTQSPDSLAVSLGERATINCKSSQSLLNSGNQKNYLTWYQQKPGQPPKLLIYWASTRESGVPDRFTGSGSGTDFTLTISSLQAEDVAVYYCQNDYSYPFTFGSGTKLEIKR", "notes": "also called VH-W112E; Kabat 100; copies: 2 + 2"}, "B16": {"name": "H1.163_L1 (antibody, V domains shown)", "VH": "EVQLVESGGGLVQPGGSLRLSCAASGFTFSSFGMHWVRQAPGKGLEWVSYISSGSSIIYYADSVKGRFTISRDNAKNSLYLQMNSLRAEDTAVYYCARGGRLVWGPDYWGQGTLVTVSS", "VL": "DIVMTQSPDSLAVSLGERATINCKSSQSLLNSGNQKNYLTWYQQKPGQPPKLLIYWASTRESGVPDRFTGSGSGTDFTLTISSLQAEDVAVYYCQNDYSYPFTFGSGTKLEIKR", "notes": "also called VH-S113G; Kabat 100a"}, "B17": {"name": "H1_L1.8 (antibody, V domains shown)", "VH": "EVQLVESGGGLVQPGGSLRLSCAASGFTFSSFGMHWVRQAPGKGLEWVSYISSGSSIIYYADSVKGRFTISRDNAKNSLYLQMNSLRAEDTAVYYCARGGRLVWSPDYWGQGTLVTVSS", "VL": "DIVMTQSPDSLAVSLGERATINCKSSQSLLYSGNQKNYLTWYQQKPGQPPKLLIYWASTRESGVPDRFTGSGSGTDFTLTISSLQAEDVAVYYCQNDYSYPFTFGSGTKLEIKR", "notes": "also called VL-N31Y; Kabat 27d"}, "B18": {"name": "H1.150_L1 (antibody, V domains shown)", "VH": "EVQLVESGGGLVQPGGSLRLSCAASGFTFSSFGMHWVRQAPGKGLEWVSYISSGSSIIYYADSVKGRFTISRDNAKNSLYLQMNSLRAEDTAVYYCARGGRLKWSPDYWGQGTLVTVSS", "VL": "DIVMTQSPDSLAVSLGERATINCKSSQSLLNSGNQKNYLTWYQQKPGQPPKLLIYWASTRESGVPDRFTGSGSGTDFTLTISSLQAEDVAVYYCQNDYSYPFTFGSGTKLEIKR", "notes": "also called VH-V111K; Kabat 99"}, "B19": {"name": "H1.164_L1 (antibody, V domains shown)", "VH": "EVQLVESGGGLVQPGGSLRLSCAASGFTFSSFGMHWVRQAPGKGLEWVSYISSGSSIIYYADSVKGRFTISRDNAKNSLYLQMNSLRAEDTAVYYCARGGRLVWVPDYWGQGTLVTVSS", "VL": "DIVMTQSPDSLAVSLGERATINCKSSQSLLNSGNQKNYLTWYQQKPGQPPKLLIYWASTRESGVPDRFTGSGSGTDFTLTISSLQAEDVAVYYCQNDYSYPFTFGSGTKLEIKR", "notes": "also called VH-S113V; Kabat 100a"}, "B20": {"name": "H1_L1.6 (antibody, V domains shown)", "VH": "EVQLVESGGGLVQPGGSLRLSCAASGFTFSSFGMHWVRQAPGKGLEWVSYISSGSSIIYYADSVKGRFTISRDNAKNSLYLQMNSLRAEDTAVYYCARGGRLVWSPDYWGQGTLVTVSS", "VL": "DIVMTQSPDSLAVSLGERATINCKSSQSLLTSGNQKNYLTWYQQKPGQPPKLLIYWASTRESGVPDRFTGSGSGTDFTLTISSLQAEDVAVYYCQNDYSYPFTFGSGTKLEIKR", "notes": "also called VL-N31T; Kabat 27d"}}, "data": [{"target": "T1, human PD-1-His (human, UniProt Q15116 25-167, limits assumed)", "T1 construct": "Antigen of the Octet assays; not shown: His tag", "T1 sequence (Q15116 25-167 limits assumed)": "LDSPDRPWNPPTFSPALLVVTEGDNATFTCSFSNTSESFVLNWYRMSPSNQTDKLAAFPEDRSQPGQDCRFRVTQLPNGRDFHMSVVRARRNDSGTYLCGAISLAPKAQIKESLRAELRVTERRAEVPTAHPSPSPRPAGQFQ", "test": "Octet", "units": {"Kd": "nM", "koff": "s⁻¹", "kon": "M⁻¹ s⁻¹"}, "values": [{"binder": "B1", "Kd": 116, "koff": 0.0116, "kon": 99700}, {"binder": "B2", "binding result": "no binding"}, {"binder": "B3", "Kd": 46.7, "koff": 0.005, "kon": 107000}, {"binder": "B4", "Kd": 152, "koff": 0.0228, "kon": 150000}, {"binder": "B5", "binding result": "no binding"}, {"binder": "B6", "Kd": 82.9, "koff": 0.00755, "kon": 91000}, {"binder": "B7", "Kd": 32.9, "koff": 0.00569, "kon": 173000}, {"binder": "B8", "Kd": 47.5, "koff": 0.00755, "kon": 159000}, {"binder": "B9", "Kd": 189, "koff": 0.0457, "kon": 242000}, {"binder": "B10", "Kd": 103, "koff": 0.00997, "kon": 96500}, {"binder": "B11", "binding result": "no binding"}, {"binder": "B12", "Kd": 90.7, "koff": 0.00764, "kon": 84300}, {"binder": "B13", "Kd": 84.6, "koff": 0.00875, "kon": 103000}, {"binder": "B14", "binding result": "no binding"}, {"binder": "B15", "binding result": "no binding"}, {"binder": "B16", "Kd": 92, "koff": 0.0113, "kon": 123000}, {"binder": "B17", "Kd": 307, "koff": 0.0247, "kon": 80600}, {"binder": "B18", "Kd": 60, "koff": 0.00524, "kon": 87200}, {"binder": "B19", "Kd": 280, "koff": 0.0166, "kon": 59400}, {"binder": "B20", "Kd": 64.6, "koff": 0.00777, "kon": 120000}]}]}
